Measured values taken from patent publication US20100233165A1 (published 2010).
Values belong to the binder of their own block, whether it stands above or below them.

Tests used:
[1] = target: T1, ALCAM/MEMD/CD166 (UniProt Q13740 28-583, limits assumed); assay: apparent KD by FACS on Du-145 cells, IgG1 incubated at 4° C. overnight, curve fitting of MFI
T1 construct: whole, on cells; On Du-145 prostate cancer cells for FACS, and from lysates of surface-biotinylated Du-145 cells for IP/Western; Glycosylated, with a band of about 105 kDa; Du-145 is a human prostate cancer line
T1 sequence (looked up): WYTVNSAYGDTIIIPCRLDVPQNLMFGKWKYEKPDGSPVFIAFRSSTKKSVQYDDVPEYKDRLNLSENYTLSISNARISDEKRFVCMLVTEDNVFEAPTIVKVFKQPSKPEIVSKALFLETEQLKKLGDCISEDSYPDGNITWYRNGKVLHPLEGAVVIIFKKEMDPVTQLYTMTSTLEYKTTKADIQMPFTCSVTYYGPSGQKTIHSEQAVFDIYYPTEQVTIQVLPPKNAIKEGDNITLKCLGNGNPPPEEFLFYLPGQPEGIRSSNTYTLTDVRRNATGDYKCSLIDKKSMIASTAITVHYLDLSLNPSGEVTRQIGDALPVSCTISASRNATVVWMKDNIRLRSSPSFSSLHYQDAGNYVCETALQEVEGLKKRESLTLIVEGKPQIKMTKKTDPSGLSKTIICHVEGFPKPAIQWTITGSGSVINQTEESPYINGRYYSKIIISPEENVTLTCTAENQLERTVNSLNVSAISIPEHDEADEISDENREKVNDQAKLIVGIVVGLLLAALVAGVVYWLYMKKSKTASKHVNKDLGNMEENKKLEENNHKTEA
Procedure: Monodispersed DU-145 cells were incubated with varying concentrations of IgG1s at 4° C. overnight to allow equilibrium binding. After washing, bound human IgG1s were detected by R-phycoerythrin-conjugated goat anti-human secondary antibody and analyzed by FACS. Mean fluorescence intensity (MFI) values were plotted and the KD was determined by curve fitting using GraphPad (GraphPad Software, San Diego, Calif.).

[2] = target: T1, ALCAM/MEMD/CD166; assay: caption of the IHC table
Source text: Phage antibodies selected by LCM were expected to bind to clinically relevant antigens on cancer cells in situ. We performed immunohistochemical studies using soluble scFv fragments derived from LCM-selected phage antibody on prostate cancer tissue sections. […] The 585II41 scFv also stained tumor cells intensely on frozen tissue slides (FIG. 4, panel B). Some basal cells in normal epithelium adjacent to tumor were also stained with reduced intensity (Table 5). […] These experiments indicate that antibodies obtained from LCM selection bind to antigens that exist in patient specimens and thus are clinically relevant to human prostate cancer. The corresponding antigens are likely targets for therapeutic intervention.
TABLE 5 Immunohistochemistry (IHC) results of the 585II41 and UA20 scFv fragments on a panel of frozen CaP and normal tissues. The numbers of cases studied are indicated. Biotinylated scFv fragments were first tested on cell lines to ensure binding activity and then used for IHC studies. As a control, a random scFv with no binding activity to cell lines was used to register the background level of staining. No change, no change in staining level was observed when compared with the result of the control scFv

[3] = target: T1, ALCAM/MEMD/CD166; assay: FACS competition on Du-145 cells against 585II41 scFv

Kd [1]: 4.4 µM
B1: anti-ALCAM IgG1 (585II41.1, also known as H3) (antibody, V domains shown)
VH: QVQLVESGGGLVQPGGSLRLSCAASGFTFSSYAMSWVRQAPGKGLEWVSAISGSGGSTYYADSVKGRFTISRDNSKDTLYLQMNSLRAEDTAVYYCASRSLLDYWGQGTLVTVSS
VL: NFMLTQDPAVSVALGQTVRITCQGDSLRSYYASWYQQKPGQAPLLVIYGKNNRPSGIPDRFSGSSSGNTASLTITGAQAEDEADYYCNSRDSSGNPVFGGGTKVTVL
notes: Human IgG1 (detected with anti-human secondary antibody); also called H3 IgG; H3 IgG1

binding result [2]: binds
B2: 585II41 scFv (scFv, not shown: small tags and cut ends)
scFv: QVQLVESGGGLVQPGGSLRLSCAASGFTFSSYAMGWVRQAPGKGLEWVSAISGSGGSTYYADSVKGRFTISRDNSKDTLYLQMNSLRAEDTAVYYCASRSLLDYWGQGTLVTVSSGGGGSGGGGSGGGGSNFMLTQDPAVSVALGQTVRITCQGDSLRSYYASWYQQKPGQAPLLVIYGKNNRPSGIPDRFSGSSSGNTASLTITGAQAEDEADYYCNSRDSSGNPVFGGGTKVTVL
notes: Soluble monomeric scFv from E. coli periplasm, purified by IMAC; Biotinylated for FACS analysis by the general methods; also called clone #10; H3 variant

binding result [3]: binds
B3: H3 scFv (585II41.1) (scFv)
scFv: QVQLVESGGGLVQPGGSLRLSCAASGFTFSSYAMSWVRQAPGKGLEWVSAISGSGGSTYYADSVKGRFTISRDNSKDTLYLQMNSLRAEDTAVYYCASRSLLDYWGQGTLVTVSSGGGGSGGGGSGGGGSNFMLTQDPAVSVALGQTVRITCQGDSLRSYYASWYQQKPGQAPLLVIYGKNNRPSGIPDRFSGSSSGNTASLTITGAQAEDEADYYCNSRDSSGNPVFGGGTKVTVL
notes: also called clone #11; anti-ALCAM scFv
